± gives the standard deviation.

This series in a line: protein stability index of a GFP-peptide fusion (GPS, HEK-293T) (PSI 1-6); higher = more stable.
Where [1] appears, read: treatment: DMSO, c terminus: a fixed tail appended.
Where [2] appears, read: treatment: MLN4924 1 uM, 8 h, c terminus: a fixed tail appended.
Setting [3] is: treatment: DMSO, c terminus: native.
The mark [4] stands for this setting: treatment: MLN4924 1 uM, 8 h, c terminus: native.
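Further: 24-mer peptide tiles fused after GFP, lentivirally expressed, FACS-sorted into six equal bins by GFP/DsRed ratio, decoded by Illumina sequencing, PSI is the read-weighted mean bin number.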

Regarding AAHLALLLLCGTISLRVYRKVLQA [RTN2], the protein stability index under setting [1] is 2.49 ± 0.33 and the protein stability index under setting [2] worked out at 2.51 ± 0.73.
The like results for AALRLHRLLRDSEAFCHANCSGPA [P3H4] were, in that order, 2.1 ± 0.1 and 2.27 ± 0.27.
As to AALSEENTGKTYFFVANKYWRYDE [MMP1], the protein stability index is, setting by setting: under setting [1], 2.49 ± 0.37; under setting [2], 2.21 ± 0.18.
For AALTEALQRQAEQNPTASYYNVVL [FCHO1], in that order: 2.3 ± 0.33 and 2.21 ± 0.33.
For the sequence AAVLQYASLVGQKCSERMLLFRN [ATE1], the protein stability index under setting [3] was found to be 2.38 ± 0.043 and the protein stability index under setting [4] is 2.27 ± 0.33.
In the case of ADAISENYRIMSYFKEAELKDLLL [WEE1], the protein stability index was 2.61 ± 0.22 under setting [1] and 2.72 ± 0.54 under setting [2].
For ADGAWVVKMFYSFQDKRNLYLIME [STK38L], in that order: 3.11 ± 1 and 2.99 ± 0.79.
For ADKYALERLKVMCEEALCSNLSVE [SPOPL], in that order: 3.56 ± 0.18 and 3.62 ± 0.18.
With ADQRSRMLSIFYFAIPVGSGLGYI [SPNS1], the protein stability index is, setting by setting: under setting [1], 2.44 ± 0.52; under setting [2], 2.26 ± 0.31.
Consider ADVWSLGVMLYTLLVGRYPFHDSD [TRIB1], for which the protein stability index runs as follows: under setting [1], 3.15 ± 0.26; under setting [2], 2.58 ± 0.26.
In the case of AEFEKLSDQVKISEEALRADGFGD [SAT2], the protein stability index under setting [1] was 5.33 ± 0.11 and the protein stability index under setting [2] came out at 5.45 ± 0.15.
For AEGSNSESSDDDSEEAPSTSGMGF [SDE2], the protein stability index by setting is: under setting [1], 5.37 ± 0.15; under setting [2], 5.26 ± 0.36.
As for AEIPDGPPVVAHYDMSDTNSDPEV [C18orf25], the protein stability index is, setting by setting: under setting [1], 5.65 ± 0.21; under setting [2], 5.48 ± 0.23.
As to AEPGFEPADCKRKEEAGAPGGGAG [CEBPB], the protein stability index runs as follows: under setting [1], 5.48 ± 0.47; under setting [2], 5.56 ± 0.15.
For AESRGHSKGWGRNYASIIRRDCMW [MYCL], in that order: 2.23 ± 0.2 and 2.61 ± 0.39.
As to AFMLFRKRLGSMILAFRPRPNYF [GDAP1], the protein stability index was 2.5 ± 0.53 under setting [3] and 2.12 ± 0.47 under setting [4].
With AFSSRLGGSRGAPGLLMAVGQDLY [DCAF4], the protein stability index reads like this: under setting [1], 2.19 ± 0.48; under setting [2], 2.15 ± 0.38.
For AGAFGYFQQDTKGLVDFRDVALAL [LPCAT4], the protein stability index runs as follows: under setting [1], 1.98 ± 0.18; under setting [2], 2.12 ± 0.18.
Take AGAPPPSGSAVSTAPQQKPIGKIS [SRPK2]: the protein stability index is, setting by setting: under setting [1], 5.01 ± 0.26; under setting [2], 5.04 ± 0.24.
Take AGLAELGHRLAQKLQGLENWGQDP [PBXIP1]: the protein stability index is, setting by setting: under setting [1], 2.79 ± 0.17; under setting [2], 2.85 ± 0.33.
For AIIASLTFLYTLLREVIHPLATSH [STEAP1], the protein stability index is, setting by setting: under setting [1], 3.25 ± 0.34; under setting [2], 2.89 ± 0.39.
As for AKLVDLPCVIESLRTLDKKTFYKT [TAF7L], the protein stability index is, setting by setting: under setting [1], 2.52 ± 0.47; under setting [2], 2.18 ± 0.42.
For the sequence ALARNLLVDGETGESFPAQVPSGE [NFE2L1], the protein stability index reads like this: under setting [1], 4.79 ± 0.45; under setting [2], 4.5 ± 0.61.
As to ALCENFPEEMATYLRYVRRLDFFE [CSNK1G1], the protein stability index reads like this: under setting [1], 2.21 ± 0.73; under setting [2], 2.26 ± 0.26.
In the case of ALQVPRGKEDSTLQLLREENRALQ [CBY2], the protein stability index amounted to 4.13 ± 0.25 under setting [1] and 4.23 ± 0.084 under setting [2].
The like results for ALRLAELARRRRRRQARREAEADK [NOP53] were, in that order, 4.12 ± 0.21 and 4.37 ± 0.82.
The like results for ALVGDEVELPCRISPGKNATGMEV [MOG] were, in that order, 4.03 ± 0.22 and 4.23 ± 0.26.
Regarding AMEPDRKAAVSHWQQQSYLDSGIH [CTNNB1], the protein stability index by setting is: under setting [1], 3.91 ± 0.31; under setting [2], 3.95 ± 0.32.
Turning to ANDYKDTLGKGSSLSAPSKKTSR [KRT71], the protein stability index was 5.26 ± 0.32 under setting [3] and 5.12 ± 0.47 under setting [4].
APATTSSWEVVRNPLIASSFSLVK [C22orf31]: the protein stability index by setting is: under setting [1], 2.91 ± 0.24; under setting [2], 2.96 ± 0.1.
On to APVTFRHHRYDDLVRTLYKVQNEC [CPN1], for which the protein stability index under setting [1] worked out at 2.62 ± 0.065 and the protein stability index under setting [2] was determined as 2.83 ± 0.12.
With AQDLGELLATAEQEQLSLSQRQAK [LRRC45], the protein stability index was 5.25 ± 0.3 under setting [1] and 5.34 ± 0.058 under setting [2].
The like results for AQPPDYTFPSGSGAHFPQVPGGAV [PI4K2A] were, in that order, 3.93 ± 0.19 and 4.01 ± 0.12.
The like results for ARERAKLQIELGKCKAEHDQLLLN [LMNB1] were, in that order, 3.47 ± 0.098 and 3.14 ± 0.1.
As for ARKARKYEIPHFRLKKVENIKIWL [PHTF1], the protein stability index stood at 2.09 ± 0.83 under setting [1] and 1.96 ± 0.46 under setting [2].
With ARMLSSNERDSSEPGNFIPLFTPQ [CDC25A], the protein stability index was 3.85 ± 0.25 under setting [1] and 3.96 ± 0.4 under setting [2].
ASAPTYPSLYSSYHQGCLVNPTGN [NANOGP8] displayed a protein stability index under setting [1] of 3.29 ± 0.19 and a protein stability index under setting [2] of 3.44 ± 0.17.
The like results for ASASCSHWRECLFYPALWPQLRIC [FBXO33] were, in that order, 2.44 ± 0.53 and 2.23 ± 0.39.
For ASHCLMNHPDLAKDLTEYLKVRSH [PDS5B], in that order: 3.05 ± 0.27 and 3.01 ± 0.18.
The like results for ATKITLSAIYKWITDNFCYFRHAD [FOXJ1] were, in that order, 3 ± 0.21 and 2.77 ± 0.49.
For the sequence AVNNGDFEAYAKICDPGLTSFEPE [CAMK2B], the protein stability index runs as follows: under setting [1], 4.35 ± 0.27; under setting [2], 4.38 ± 0.14.
AVVHEYALAVCLSFFYPVLFVLFM [SOAT1] returned a protein stability index under setting [1] of 3.29 ± 0.42 and a protein stability index under setting [2] of 3.02 ± 0.21.
Consider AVVNELIDYGANVNQPNNNGFTPL [ANKRD44], for which the protein stability index is 3.05 ± 0.2 under setting [1] and 3.21 ± 0.17 under setting [2].
Consider AVYDGSSSVEDLKAKFCSTVANDV [NETO1], for which the protein stability index reads like this: under setting [1], 4.03 ± 0.19; under setting [2], 4.17 ± 0.31.
In the case of AWQYGPCTGITRLQRWCRAKHMGL [POLD4], the protein stability index is, setting by setting: under setting [1], 2.15 ± 0.12; under setting [2], 2.3 ± 0.42.
AYCLDQGAEDGDRAILYPCHGMSS [GALNT9]: the protein stability index runs as follows: under setting [1], 3.67 ± 0.29; under setting [2], 3.69 ± 0.11.
On to AYFAGNQKQLEQTLQQFNIKLRPP [ARFIP2], for which the protein stability index by setting is: under setting [1], 2.63 ± 0.16; under setting [2], 2.76 ± 0.29.
As for AYRCGSGMQMAEDSKSLKTHQTQP [NET1], the protein stability index runs as follows: under setting [1], 3.94 ± 0.16; under setting [2], 3.22 ± 0.25.
For the sequence CATTNASGNSCGPCGTSQKGCCN [KRT34], the protein stability index was found to be 3.78 ± 0.17 under setting [3] and 3.66 ± 0.31 under setting [4].
Consider CAVLLSAVQAQAGWLQHDFGHLSV [FADS1], for which the protein stability index runs as follows: under setting [1], 3.25 ± 0.5; under setting [2], 3.3 ± 0.65.
In the case of CCHRSQKGFPGCKLGLHDNHWVPA [FBXO34], the protein stability index came out at 2.2 ± 0.39 under setting [1] and 2.16 ± 0.34 under setting [2].
As for CFRMQINHAIDIICGFLKERCFRG [OAS1], the protein stability index came out at 2.44 ± 0.66 under setting [1] and 2.61 ± 0.36 under setting [2].
As to CFYRGYTSGVAAVQDWYHFHYVDI [SCNN1D], the protein stability index is 3.06 ± 0.86 under setting [1] and 2.92 ± 0.75 under setting [2].
Turning to CGADVNVRDSDDNSPLHIAALNNH [FEM1C], the protein stability index is, setting by setting: under setting [1], 2.9 ± 0.34; under setting [2], 2.83 ± 0.24.
The like results for CGGSGGGGGGGGGGGGCSSGSSYC [LURAP1L] were, in that order, 3.28 ± 0.46 and 3.22 ± 0.22.
With CIGLQNLKLLDELPIAKVMKDYLK [ASB7], the protein stability index reads like this: under setting [1], 2.11 ± 0.28; under setting [2], 2.27 ± 0.39.
CIHTGLSQYIAVEAAEGRNKNEVF [FBXO3]: the protein stability index is, setting by setting: under setting [1], 3.38 ± 0.49; under setting [2], 3.48 ± 0.19.
Take CLLQPPSCPNGMSAENGLEKSGFS [DLC1]: the protein stability index by setting is: under setting [1], 3.99 ± 0.14; under setting [2], 3.44 ± 0.8.
For the sequence CLPLTFCIHTGLSQYIAVEAAEGR [FBXO3], the protein stability index is, setting by setting: under setting [1], 2.96 ± 0.72; under setting [2], 2.4 ± 0.93.
As for CLTLTPRPATEAELLTCHSAEYVG [HDAC6], the protein stability index by setting is: under setting [1], 3.48 ± 0.16; under setting [2], 3.43 ± 0.16.
For the sequence CNVDLLKIIQLGLTFMNEQGEYPP [CNOT7], the protein stability index is, setting by setting: under setting [1], 2.96 ± 1.3; under setting [2], 2.48 ± 0.18.
CPIDQHHRNQCQYCRLKKCLKVGM [NR2F2]: the protein stability index reads like this: under setting [1], 2.97 ± 0.038; under setting [2], 3.36 ± 0.36.
The like results for CSISKMEEEAGQTSIEPSKSSIIP [ZER1] were, in that order, 4.59 ± 0.28 and 4.53 ± 0.2.
On to CSSRPLQKGSHPMCKEHEDEKINI [TRIM63], for which the protein stability index reads like this: under setting [1], 4.81 ± 0.093; under setting [2], 4.84 ± 0.24.
In the case of CTSRIFVQKSIYSEFLKRFVEATR [ALDH8A1], the protein stability index was 2.36 ± 0.52 under setting [1] and 2.34 ± 0.5 under setting [2].
CYTFSVLITFDNKAHSGRIPISLE [MCOLN1]: the protein stability index came out at 3.58 ± 0.41 under setting [1] and 3.3 ± 0.62 under setting [2].
As for DAIGEGKVTLRIRNVRFSDEGGFT [MOG], the protein stability index runs as follows: under setting [1], 2.88 ± 0.35; under setting [2], 2.84 ± 0.44.
For DDILYHVKGMQRIVNQWSEKFSDE [DLC1], in that order: 3.52 ± 0.14 and 3.75 ± 0.28.
As for DDKMVRFWRIDEDYPVQVAPLSNG [WSB1], the protein stability index by setting is: under setting [1], 3.37 ± 0.34; under setting [2], 3.45 ± 0.33.
The like results for DDLQQLQLFTEYGRLAMDEIFQKP [ATL3] were, in that order, 3.31 ± 0.26 and 3.57 ± 0.21.
Turning to DEEQQVLLSRLEEEEQDILQRLRE [TRIM39], the protein stability index came to 5.27 ± 0.098 under setting [1] and 5.28 ± 0.33 under setting [2].
As to DESAIDFSAYIDSMAAVPTLELCH [CEBPD], the protein stability index was found to be 3.17 ± 0.26 under setting [1] and 3.31 ± 0.17 under setting [2].

These data come from the supplement of paper PMC10567573.
